Measurements reported in the supplement of paper PMC7877785.
± gives the uncertainty stated by the source.

Assay: self-splicing fitness, log relative to wild type (ln ratio); higher = more splicing; Tetrahymena group I intron in knt gene, E. coli kanamycin selection, DiMSum; sequences stand for … in CUCUCU…GGAGGGAAAAGUUAUCAGGCAUGCACCUGGUAGCUAGUCUUUAAACCAAUAGAUUGCAUCGGUUUAAAAGGCAAGACCGUCAAAUUGCGGGAAAGGGGUCAACAGCCGUUCAGUACCAAGUCUCAGGGGAAACUUUGAGAUGGCCUUGCAAAGGGUAUGGUAAUAAGCUGACGGACAUGGUCCUAACCACGCAGCCAAGUCCUAAGUCAACAGAUCUUCUGUUGAUAUGGAUGCAGUUCACAGACUAAAUGUCGGUCGGGGAAGAUGUAUUCUUCUCAUAAGAUAUAGUCGGACCUCUCCUUAAUGGGAGCUAGCGGAUGAAGUGAUGCAACACUGGAGCCGCUGGGAACUAAUUUGUAUGCGAAAGUAUAUUGAUUAGUUUUGGAGUACUCGUGGUCG
In short: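 A randomised library covering all eight P1ex-region intron nucleotides was built with the intron in the knt kanamycin-resistance gene on pET-22b(+) and held in E. coli BL21(DE3). Cells were grown overnight at 37°C or 30°C on LB agar, with or without 25 μg/mL kanamycin, plus 100 μg/mL carbenicillin, 50 μM IPTG and 0.2% rhamnose, and pooled colonies were amplicon-sequenced on an Illumina HiSeq 2500. DiMSum fitness is the error-weighted combination of wild-type-normalised replicate fold changes, kanamycin versus none.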

Sequence	self-splicing fitness (ln) (30 °C)	self-splicing fitness (ln) (37 °C)
UGCGAGCAAUAUUACGGUUU	-3.14 ± 0.3	-2.62 ± 0.34
UGCGAGCAAUAUUACGUACG	-3.12 ± 0.21	-2.49 ± 0.22
UGCGAGCAAUAUUACGUAUC	-1.76 ± 0.16	-2.37 ± 0.34
UGCGAGCAAUAUUACGUUCA	-1.45 ± 0.11	-0.32 ± 0.15
UGCUAGCAAUAUUACGCAAA	–	-0.861 ± 0.16
UGCUAGCAAUAUUACGCACU	-2.3 ± 0.11	-1.11 ± 0.11
UGCUAGCAAUAUUACGCCAG	–	-2.17 ± 0.39
UGCUAGCAAUAUUACGCCCA	0.275 ± 0.1	0.384 ± 0.13
UGCUAGCAAUAUUACGCCCU	-0.725 ± 0.27	-0.338 ± 0.27
UGCUAGCAAUAUUACGCUAC	-2.72 ± 0.48	-2.32 ± 0.47
UGCUAGCAAUAUUACGCUGA	-1.25 ± 0.12	-1.18 ± 0.13
UGCUAGCAAUAUUACGCUUA	-1.31 ± 0.11	-0.517 ± 0.12
UGCUAGCAAUAUUACGGCAA	-0.895 ± 0.16	-1.1 ± 0.16
UGCUAGCAAUAUUACGGCUU	-0.619 ± 0.13	-1.06 ± 0.15
UGCUAGCAAUAUUACGGGAG	-2.68 ± 0.17	-1.65 ± 0.13
UGCUAGCAAUAUUACGGUGA	-1.42 ± 0.12	-0.513 ± 0.13
UGCUAGCAAUAUUACGGUGU	-3.16 ± 0.14	-2.38 ± 0.19
UGCUAGCAAUAUUACGUACG	-0.494 ± 0.09	0.0248 ± 0.1
UGCUAGCAAUAUUACGUACU	-0.707 ± 0.075	-0.893 ± 0.089
UGCUAGCAAUAUUACGUGCG	-1.94 ± 0.1	-1.7 ± 0.12
UGCUAGCAAUAUUACGUGGA	-3 ± 0.19	-2.44 ± 0.15
UGCUAGCAAUAUUACGUGUG	-1.63 ± 0.08	-0.822 ± 0.096
UGGAAGCAAUAUUACGACAC	-2.87 ± 0.17	-3.13 ± 0.25
UGGAAGCAAUAUUACGACUU	0.319 ± 0.15	0.0401 ± 0.17
UGGAAGCAAUAUUACGAGUU	-3.25 ± 0.19	-1.8 ± 0.16

Sequence	self-splicing fitness (ln) (30 °C)	self-splicing fitness (ln) (37 °C)
UGGAAGCAAUAUUACGAUCA	-0.348 ± 0.093	0.181 ± 0.12
UGGAAGCAAUAUUACGCAUC	–	-1.1 ± 0.3
UGGAAGCAAUAUUACGCCAA	-1.12 ± 0.24	-0.536 ± 0.26
UGGAAGCAAUAUUACGCCCC	-1.69 ± 0.41	-1.36 ± 0.35
UGGAAGCAAUAUUACGCGAU	-2.02 ± 0.14	-2.12 ± 0.25
UGGAAGCAAUAUUACGCGCU	-1.17 ± 0.21	-1.52 ± 0.3
UGGAAGCAAUAUUACGCGGC	-2.11 ± 0.26	-1.08 ± 0.26
UGGAAGCAAUAUUACGCGUU	-4.13 ± 0.18	-3.03 ± 0.26
UGGAAGCAAUAUUACGCUCG	-0.853 ± 0.13	-0.272 ± 0.15
UGGAAGCAAUAUUACGCUUU	-3.64 ± 0.23	-2.64 ± 0.28
UGGAAGCAAUAUUACGGAAA	-1.8 ± 0.41	-1.43 ± 0.4
UGGAAGCAAUAUUACGGAAU	-2.76 ± 0.12	-1.01 ± 0.096
UGGAAGCAAUAUUACGUCCC	-0.397 ± 0.19	0.402 ± 0.22
UGGAAGCAAUAUUACGUCCG	-2.72 ± 0.21	-2.41 ± 0.22
UGGAAGCAAUAUUACGUGGG	-2.89 ± 0.13	-2.53 ± 0.18
UGGCAGCAAUAUUACGAACU	-1.29 ± 0.12	-0.471 ± 0.16
UGGCAGCAAUAUUACGAAGU	-3.69 ± 0.37	-2.62 ± 0.23
UGGCAGCAAUAUUACGACCU	0.0278 ± 0.12	0.0625 ± 0.12
UGGCAGCAAUAUUACGAUGG	-1.48 ± 0.17	-1.67 ± 0.18
UGGCAGCAAUAUUACGCCGU	-2.63 ± 0.18	-2.02 ± 0.17
UGGCAGCAAUAUUACGCGGG	-2.76 ± 0.27	-1.48 ± 0.24
UGGCAGCAAUAUUACGCGUA	-0.0648 ± 0.084	-0.33 ± 0.087
UGGCAGCAAUAUUACGCUAA	-0.652 ± 0.06	0.116 ± 0.069
UGGCAGCAAUAUUACGCUAC	-3.85 ± 0.35	–
UGGCAGCAAUAUUACGCUCC	-2.19 ± 0.37	–

Sequence	self-splicing fitness (ln) (30 °C)	self-splicing fitness (ln) (37 °C)
UGGCAGCAAUAUUACGCUGC	-2.98 ± 0.25	–
UGGCAGCAAUAUUACGGAAA	-1.94 ± 0.16	-0.318 ± 0.14
UGGCAGCAAUAUUACGGACA	0.0855 ± 0.098	0.0548 ± 0.14
UGGCAGCAAUAUUACGGACU	-0.554 ± 0.066	0.386 ± 0.082
UGGCAGCAAUAUUACGGCAA	0.308 ± 0.22	0.661 ± 0.19
UGGCAGCAAUAUUACGGCGG	-0.882 ± 0.11	0.549 ± 0.15
UGGCAGCAAUAUUACGGGGG	-3.38 ± 0.23	-2.84 ± 0.29
UGGCAGCAAUAUUACGUAAU	-2.04 ± 0.082	-1.05 ± 0.11
UGGCAGCAAUAUUACGUAUA	-1.29 ± 0.097	0.00255 ± 0.11
UGGCAGCAAUAUUACGUCGU	-2.65 ± 0.099	-1.22 ± 0.096
UGGCAGCAAUAUUACGUUAG	-0.283 ± 0.087	0.37 ± 0.12
UGGGAGCAAUAUUACGAAUU	–	-2.63 ± 0.28
UGGGAGCAAUAUUACGACUG	-0.532 ± 0.39	-1.31 ± 0.47
UGGGAGCAAUAUUACGACUU	-2.15 ± 0.091	-0.921 ± 0.11
UGGGAGCAAUAUUACGCGGG	-3.85 ± 0.22	-2.89 ± 0.19
UGGGAGCAAUAUUACGCGUC	-0.5 ± 0.36	–
UGGGAGCAAUAUUACGGGGG	-2.97 ± 0.25	-2.17 ± 0.35
UGGGAGCAAUAUUACGUACA	-1.26 ± 0.22	-0.889 ± 0.42
UGGGAGCAAUAUUACGUCAC	-1.96 ± 0.36	–
UGGGAGCAAUAUUACGUCAG	-2.87 ± 0.23	-1.5 ± 0.3
UGGGAGCAAUAUUACGUCCA	-2.03 ± 0.12	-1.13 ± 0.11
UGGGAGCAAUAUUACGUGCA	-1.07 ± 0.093	-0.293 ± 0.11
UGGGAGCAAUAUUACGUGCC	-2.29 ± 0.34	-2.09 ± 0.35
UGGGAGCAAUAUUACGUGGA	-2.94 ± 0.44	-2.11 ± 0.2
UGGUAGCAAUAUUACGAACG	-0.892 ± 0.19	0.374 ± 0.22

Sequence	self-splicing fitness (ln) (30 °C)	self-splicing fitness (ln) (37 °C)
UGGUAGCAAUAUUACGAAUU	-1.86 ± 0.36	-2.22 ± 0.32
UGGUAGCAAUAUUACGACGG	-1.49 ± 0.11	-0.695 ± 0.13
UGGUAGCAAUAUUACGAGAU	–	-1.76 ± 0.43
UGGUAGCAAUAUUACGAGGA	-2.9 ± 0.26	-2.09 ± 0.32
UGGUAGCAAUAUUACGAGGC	-2.16 ± 0.28	-2.19 ± 0.28
UGGUAGCAAUAUUACGAUGC	-3.09 ± 0.5	-1.82 ± 0.43
UGGUAGCAAUAUUACGCGAA	-0.913 ± 0.11	-0.833 ± 0.11
UGGUAGCAAUAUUACGCUCC	-2.54 ± 0.24	-2.44 ± 0.21
UGGUAGCAAUAUUACGGACG	1.33 ± 0.17	0.34 ± 0.19
UGGUAGCAAUAUUACGGACU	-0.67 ± 0.17	0.844 ± 0.2
UGGUAGCAAUAUUACGGAGG	-3.85 ± 0.27	-1.56 ± 0.16
UGGUAGCAAUAUUACGGAUU	-3.77 ± 0.4	-0.91 ± 0.31
UGGUAGCAAUAUUACGGCAU	-1.5 ± 0.2	-0.405 ± 0.21
UGGUAGCAAUAUUACGGCGC	-1.57 ± 0.37	-0.642 ± 0.3
UGGUAGCAAUAUUACGGGGG	-3.73 ± 0.32	-2.45 ± 0.33
UGGUAGCAAUAUUACGGUCU	-0.135 ± 0.21	-0.457 ± 0.33
UGGUAGCAAUAUUACGUAAU	-1.61 ± 0.19	-0.903 ± 0.16
UGGUAGCAAUAUUACGUACA	-0.28 ± 0.087	0.35 ± 0.12
UGGUAGCAAUAUUACGUCGG	-1.21 ± 0.12	-0.18 ± 0.15
UGGUAGCAAUAUUACGUGGA	-2.71 ± 0.26	-1.98 ± 0.16
UGGUAGCAAUAUUACGUUUG	-1.26 ± 0.07	-0.669 ± 0.098
UGUAAGCAAUAUUACGAAUA	-0.825 ± 0.21	-0.536 ± 0.23
UGUAAGCAAUAUUACGAAUG	-0.511 ± 0.077	-0.125 ± 0.099
